The record followed here is the supplement of paper PMC9170038.

For the data set, the system named is MS2 coat protein. As to the kind of experiment: apparent KD of MS2 coat protein; designed switch direction (-1 OFF switch, 1 ON switch): 1; higher = weaker reporter binding. Summed up: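 RNA switches sharing common flanks were transcribed by stalled E. coli RNA polymerase on Illumina chips. A doubling series of SNAP-549-labelled MS2 coat protein, from 0.7 or 1.5 nM to 3 µM, was applied in Tris-HCl pH 7.5 buffer with KCl, MgCl2, BSA, DTT, tRNA and Tween-20. Each step lasted 0.8–1.5 h at the bottom of the series and 10–20 min at the top. Normalised cluster fluorescence was curve-fitted, giving apparent KD as the per-design median over clusters.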

[1] abbreviates: Eterna round: R95, input ligand: microRNA oligo, concentration not stated.
Setting [2] is: Eterna round: R95, input ligand: FMN 200 uM.
The mark [3] stands for this setting: Eterna round: R95, input ligand: none.
[4] abbreviates: input ligand: microRNA oligo, concentration not stated.

With “AUUAAACAUGAGGAUCACCCAUGUCAACAAAGUCGAGGAUAUGGGCAAAUAAAAUAAGAACCAGAAGGCGACUAAU [salish99_ss1_r3_071] (puzzle: Same State 1)”, the “apparent KD of MS2 coat protein” value under setting [1] was found to be 22.3 nM.

For “AUUAAACAUGAGGAUCACCCAUGUCAACAUAGUCGAGGAUAUGGGCAAAUAAAAUAAGAACCAGAAGGCGAAUAAU [salish99_ss1_r3_075] (puzzle: Same State 1)”, the “apparent KD of MS2 coat protein” value is, setting by setting: under setting [2], 45.2 nM; under setting [1], 266 nM; under setting [3], 335 nM.

As for “AUUAAUUAAUUAAUACAUGAGGAUCACCCAUGUAAUAAGAUCAAGGAUAUCAGCUCGAUUAGAGCUGAGAAGGUGAUCACAUGU [SSNG3/17-B2] (Eterna round: R96, puzzle: Same State NG 3)”, under setting [4], the “apparent KD of MS2 coat protein” value worked out at 509 nM.

Take “AUUAUACAUGAGGAUCACCCAUGUAAUUAAUCUAGUAAGAUCUAGGAUAUCAGCUCGAAUAGAGCUGAGAAGGAGAUCACAUGU [SSNG3/20-D1] (Eterna round: R96, puzzle: Same State NG 3)”: the “apparent KD of MS2 coat protein” value under setting [4] stood at 45.8 nM.

For “AUUAUACAUGAGGAUCACCCAUGUAAUUAAUUAAUUAAGAUCAAGGAUAUCAGCUCGUUUAGAGCUGAGAAGGUGAUCACAUGU [SSNG3/20-B3] (Eterna round: R96, puzzle: Same State NG 3)”, under setting [4], the “apparent KD of MS2 coat protein” value worked out at 147 nM.

With “AUUAUACAUGAGGAUCACCCAUGUAAUUAAUUAAUUAAGAUCUAGGAUAUCAGCUCGUUUAGAGCUGAGAAGGAGAUCACAUGU [SSNG3/20-C3] (Eterna round: R96, puzzle: Same State NG 3)”, the “apparent KD of MS2 coat protein” value under setting [4] stood at 23.3 nM.

Consider “AUUAUUAAUGCAGGAUAUGAAUAACAUGAGGAUCACCCAUGUGGUGUUGUGAGUAAGGAGAGAGAUCAGAAGGGCAUUUUUUUU [JMF's solution 4] (Eterna round: R96, puzzle: Same State NG 2)”, for which the “apparent KD of MS2 coat protein” value (input ligand: FMN 200 uM) worked out at 349 nM, the “apparent KD of MS2 coat protein” value under setting [4] worked out at 225 nM and the “apparent KD of MS2 coat protein” value (input ligand: none) amounted to 258 nM.

With “AUUAUUUAUGCAGGAUAUGAUUAACAUGAGGAUCACCCAUGUGGUGUUGUGAGUAAGGAGAGUGAUCAGAAGGGCAUUGUUUUU [JMF's solution 46] (Eterna round: R96, puzzle: Same State NG 2)”, the “apparent KD of MS2 coat protein” value by setting is: (input ligand: FMN 200 uM) 1450 nM; under setting [4], 473 nM; (input ligand: none) 475 nM.

“AUUAUUUAUGCAGGAUAUGAUUAACAUGAGGAUCACCCAUGUGGUGUUGUGAGUAAGGAGAGUGAUCAGAAGGGCAUUUGUUUU [JMF's solution 48] (Eterna round: R96, puzzle: Same State NG 2)”: the “apparent KD of MS2 coat protein” value was found to be 386 nM (input ligand: FMN 200 uM), 321 nM under setting [4] and 402 nM (input ligand: none).

With “AUUGCUUACGCAGGAUAUGAUGCGAAAAUUGCGUCAGAAGGGUGAAGUGACUCGUUGCAACAAGACAUGAGGAUCACCCAUGUC [SameState NG1 #92] (Eterna round: R96, puzzle: Same State NG 1)”, the “apparent KD of MS2 coat protein” value turned out to be 135 nM (input ligand: FMN 200 uM), 116 nM under setting [4] and 199 nM (input ligand: none).

With “AUUUAACAAGCUUUUUGCUCGUCUUAUAAACAUGAGGAUCACCCAUGUAAUAGCGUGAGAGUAAAUAAUUUAAUUAU [JMF 99] (puzzle: Sensor for hsa-mir-208a)”, the “apparent KD of MS2 coat protein” value reads like this: under setting [2], 13.7 nM; under setting [1], 48.6 nM; under setting [3], 10.8 nM.

Consider “AUUUUUAAUGCAGGAUAUGAUUAACAUGAGGAUCACCCAUGUGGUGUUGUGAGUAAGGAGAGUGAUCAGAAGGGCAUUUUUUGU [JMF's solution 87] (Eterna round: R96, puzzle: Same State NG 2)”, for which the “apparent KD of MS2 coat protein” value (input ligand: FMN 200 uM) came to 827 nM, the “apparent KD of MS2 coat protein” value under setting [4] was determined as 301 nM and the “apparent KD of MS2 coat protein” value (input ligand: none) was 621 nM.

For the sequence “CAGCGCUGUCGAGAGGAUAUGUGGUGAUGGACAUGAGGAUCACCCAUGUUAGCGACAGCAUCACGGCAGAAGGCUCUACCGCUGC [Soteed Omei mod 30] (puzzle: Same State 2)”, the “apparent KD of MS2 coat protein” value was 31.2 nM under setting [2], 40.6 nM under setting [1] and 23.1 nM under setting [3].

Turning to “CAGCGCUGUUGAGAGGAUAUGCGGUGAUGGACAUGAGGAUCACCCAUGUUAGCGACAGCAUUACGGCAGAAGGCUUCACAGCUGC [Soteed Omei mod 17] (Eterna round: R96, puzzle: Same State 2)”, the “apparent KD of MS2 coat protein” value by setting is: (input ligand: FMN 200 uM) 13.9 nM; under setting [4], 36.9 nM; (input ligand: none) 47.1 nM.

With “CAGCGCUGUUGAGAGGAUAUGCGGUGAUGGACAUGAGGAUCACCCAUGUUAGCGACAGCAUUACGGCAGAAGGCUUCACAGCUGC [Soteed Omei mod 17] (puzzle: Same State 2)”, under setting [1], the “apparent KD of MS2 coat protein” value was determined as 39.3 nM.

As to “CAGCGCUGUUGAGAGGAUAUGCGGUGAUGGACAUGAGGAUCACCCAUGUUAGCGAUAGCAUUACGGUAGAAGGCUCUACAGCUGC [Soteed Omei mod 3] (puzzle: Same State 2)”, the “apparent KD of MS2 coat protein” value under setting [1] was found to be 14 nM.

Regarding “CAGUGCUGUUGAGAGGAUAUGCGGCGACGGACAUGAGGAUCACCCAUGUUAGCGACAGCGUUGCGGCAGAAGGCUCUGCCCACUG [Soteed Omei mod 49] (puzzle: Same State 2)”, the “apparent KD of MS2 coat protein” value under setting [1] came out at 8.8 nM.

With “CAUAAUAAAACGGAGGAUAUGCUACCCUUCACAUGAGGAUCACCCAUGUUACCCUCUUAUUUUCAGUAGAAGGCCGAUACAUAAC [Delilah] (puzzle: Same State 2)”, the “apparent KD of MS2 coat protein” value reads like this: under setting [2], 38.1 nM; under setting [1], 31.9 nM; under setting [3], 38.9 nM.

With “CAUCAUGCGUCUAAGGAUAUGUCUCACAAGACAUGAGGAUCACCCAUGUAGAAUAAAUAAAUGAUGCAGAAGGUGGAGCGCAUGC [Erzausis] (Eterna round: R96, puzzle: Same State 2)”, the “apparent KD of MS2 coat protein” value under setting [4] is 253 nM.

Turning to “CAUCUAUACGUAGGAUAUGUAGGAUAUGCCUACAUGAGGAUCACCCAUGUUCGCAUGGCAGAAGGACAGAAGGACGAACUACUU [pwkr ssNG2 2FMN + 1F5.6] (Eterna round: R96, puzzle: Same State NG 2)”, the “apparent KD of MS2 coat protein” value runs as follows: (input ligand: FMN 200 uM) 32.4 nM; under setting [4], 174 nM; (input ligand: none) 234 nM.

Take “CAUCUAUACUUAGGAUAUGUAGGAUAUGCCUACAUGAGGAUCACCCAUGUUCGCAUGGCAGAAGGACAGAAGGAAGAACUACUU [pwkr ssNG2 2FMN + 1F5.5] (Eterna round: R96, puzzle: Same State NG 2)”: the “apparent KD of MS2 coat protein” value turned out to be 94.3 nM (input ligand: FMN 200 uM), 57.3 nM under setting [4] and 266 nM (input ligand: none).

Turning to “CCAGGACAUGAGGAUCACCCAUGUGCUUAAUGUGGAGAAUCUCAGGAUAUCAUGAGGAUCACCCAUGAGAAGGGAGAUCCGAGG (Eterna round: R96, puzzle: Same State NG 3)”, the “apparent KD of MS2 coat protein” value reads like this: (input ligand: FMN 200 uM) 573 nM; under setting [4], 234 nM; (input ligand: none) 398 nM.

Turning to “CCAUAACAGUGAGGAUAUUGUUGCGAUAAGUGACGAGAAGGCAUUUAUGUGAAAUAAACAUACAUGAGGAUCACCCAUGUUGUA [Omei SS(NG)1 Bv4] (Eterna round: R96, puzzle: Same State NG 1)”, the “apparent KD of MS2 coat protein” value worked out at 17.3 nM (input ligand: FMN 200 uM), 16.7 nM under setting [4] and 22.3 nM (input ligand: none).

With “CCGAUUUAUGGAGGAUAUGGAGCCUUAUUGGCUCCAGAAGGUCAAUAACAUGAGGAUCACCCAUGUACGGCGGUCAAUAGACCG [Eli NG1ss - 70] (Eterna round: R96, puzzle: Same State NG 1)”, the “apparent KD of MS2 coat protein” value was found to be 24.8 nM (input ligand: FMN 200 uM), 28.1 nM under setting [4] and 34.6 nM (input ligand: none).

For the sequence “CCGUAAAAUGGAGGAUAUGGAGCCUUAUUGGCUCCAGAAGGUCAUAAAACAUGAGGAUCACCCAUGUCGGCGGUCAAUAGACCG [Eli NG1ss - 78] (Eterna round: R96, puzzle: Same State NG 1)”, under setting [4], the “apparent KD of MS2 coat protein” value stood at 31.5 nM.

“CCGUAGAUGGUAGGAUAUGGAGCCUUAUUGGCUCCAGAAGGAUCGAAACAUGAGGAUCACCCAUGUUCGGCGGUCAAUAGACCG [Eli NG1ss - 85] (Eterna round: R96, puzzle: Same State NG 1)”: the “apparent KD of MS2 coat protein” value (input ligand: FMN 200 uM) was determined as 22.5 nM, the “apparent KD of MS2 coat protein” value under setting [4] was determined as 17.6 nM and the “apparent KD of MS2 coat protein” value (input ligand: none) worked out at 23.9 nM.

Consider “CGAUGAUACUCAGGAAGGAGAGUAGAGGAACAUGAGGAUCACCCAUGUAUGAGCUUUUUGCUCGUCAUGAACAGGAG [JR_SHM208a_Sub009] (puzzle: Sensor for hsa-mir-208a)”, for which the “apparent KD of MS2 coat protein” value turned out to be 107 nM under setting [2], 64.4 nM under setting [1] and 111 nM under setting [3].

In the case of “CGCCAAUUGGCACAGGAUAUGAGCAUGCUCACAUGAGGAUCACCCAUGUGAUUACCAACGCAAAAUCAGAAGGGUGCCCUCGUCA [Beanza] (Eterna round: R96, puzzle: Same State 2)”, the “apparent KD of MS2 coat protein” value (input ligand: FMN 200 uM) was 80.6 nM, the “apparent KD of MS2 coat protein” value under setting [4] amounted to 99.1 nM and the “apparent KD of MS2 coat protein” value (input ligand: none) turned out to be 164 nM.

As for “CGCCAGAGAACAGGAUAUGGGCCGCGGCCUAUGGGCUGCUAACUCACAUGAGGAUCACCCAUGUCCCAGAAGGGUUCCUGGCGG [Xediat] (Eterna round: R96, puzzle: Same State NG 2)”, the “apparent KD of MS2 coat protein” value is 472 nM (input ligand: FMN 200 uM), 23.1 nM under setting [4] and 262 nM (input ligand: none).

For “CGCGCUCCGGUAGGAUAUGAGGUGCCGUAGGGACCCGCCUACGGACAUGAGGAUCACCCAUGUCCUCAGAAGGACCGGGCGUGA [Soenonorma] (Eterna round: R96, puzzle: Same State NG 2)”, the “apparent KD of MS2 coat protein” value worked out at 15.1 nM (input ligand: FMN 200 uM), 29.6 nM under setting [4] and 35.5 nM (input ligand: none).
